Assay results reported in US20250262210A1 (TRUSTEES OF COLUMBIA UNIVERSITY IN THE CITY OF NEW YORK, published 2025).

Target: T1, EGFR (human, UniProt P00533 25-1210)
T1 construct: also called epidermal growth factor receptor
Assay: IP/MS, LZTR1 R810W-FLAG, U87; spectral counts >2-fold against wild type
Procedure: Lysates were immunoprecipitated with FLAG affinity matrix and eluted with FLAG peptide. […] Protein gel slices were excised and in-gel digestion performed as previously described (83), with minor modifications. Gel slices were washed with 1:1 A cetonitrile and 100 mM ammonium bicarbonate for 30 min then dehydrated with 100% acetonitrile for 10 min until shrunk. The excess acetonitrile was then removed and the slices dried in speed-vacuum at room temperature for 10 min. Gel slices were reduced with 5 mM DTT for 30 min at 56° C. in an air thermostat, cooled down to room temperature, and alkylated with 11 mM IAA for 30 min with no light. Gel slices were then washed with 100 mM of ammonium bicarbonate and 100% acetonitrile for 10 min each. Excess acetonitrile was removed and dried in a speed-vacuum for 10 min at room temperature and the gel slices were re-hydrated in a solution of 25 ng/μl trypsin in 50 mM ammonium bicarbonate for 30 min on ice and digested overnight at 37° C. in an air thermostat. Digested peptides were collected and further extracted from gel slices in extraction buffer (1:2 ratio by volume of 5% formic acid:acetonitrile) at high speed, shaking in an air thermostat. […] The following modifications were used for protein identification and quantification: oxidation of methionine (M), acetylation of the protein N-terminus, and deamination for asparagine or glutamine (NQ). […]

B1: LZTR1 R810W-FLAG (other, human, UniProt Q8N653 1-840, looked up)
chain: MAGPGSTGGQIGAAALAGGARSKVAPSVDFDHSCSDSVEYLTLNFGPFETVHRWRRLPPCDEFVGARRSKHTVVAYKDAIYVFGGDNGKTMLNDLLRFDVKDCSWCRAFTTGTPPAPRYHHSAVVYGSSMFVFGGYTGDIYSNSNLKNKNDLFEYKFATGQWTEWKIEGRLPVARSAHGATVYSDKLWIFAGYDGNARLNDMWTIGLQDRELTCWEEVAQSGEIPPSCCNFPVAVCRDKMFVFSGQSGAKITNNLFQFEFKDKTWTRIPTEHLLRGSPPPPQRRYGHTMVAFDRHLYVFGGAADNTLPNELHCYDVDFQTWEVVQPSSDSEVGGAEVPERACASEEVPTLTYEERVGFKKSRDVFGLDFGTTSAKQPTQPASELPSGRLFHAAAVISDAMYIFGGTVDNNIRSGEMYRFQFSCYPKCTLHEDYGRLWESRQFCDVEFVLGEKEECVQGHVAIVTARSRWLRRKITQARERLAQKLEQEAAPVPREAPGVAAGGARPPLLHVAIREAEARPFEVLMQFLYTDKIKYPRKGHVEDVLLIMDVYKLALSFQLCRLEQLCRQYIEASVDLQNVLVVCESAARLQLSQLKEHCLNFVVKESHFNQVIMMKEFERLSSPLIVEIVRRKQQPPPRTPLDQPVDIGTSLIQDMKAYLEGAGAEFCDITLLLDGHPRPAHKAILAARSSYFEAMFRSFMPEDGQVNISIGEMVPSRQAFESMLRYIYYGEVNMPPEDSLYLFAAPYYYGFYNNRLQAYCKQNLEMNVTVQNVLQILEAADKTQALDMKRHCLHIIVHQFTKVSKLPTLWSLSQQLLLDIIDSLASHISDKQCAELGADI
notes: Stably expressed in U87 cells by lentivirus; also called LZTR1-FLAG-R810W; LZTR1 RW; not shown: FLAG tag
B1: binds.
